According to patent publication US20240261333A1 (published 2024):

T1: TBL2 (human, UniProt Q9Y4P3 1-447)
T1 construct: also called NP_036585.1
T1 sequence (looked up): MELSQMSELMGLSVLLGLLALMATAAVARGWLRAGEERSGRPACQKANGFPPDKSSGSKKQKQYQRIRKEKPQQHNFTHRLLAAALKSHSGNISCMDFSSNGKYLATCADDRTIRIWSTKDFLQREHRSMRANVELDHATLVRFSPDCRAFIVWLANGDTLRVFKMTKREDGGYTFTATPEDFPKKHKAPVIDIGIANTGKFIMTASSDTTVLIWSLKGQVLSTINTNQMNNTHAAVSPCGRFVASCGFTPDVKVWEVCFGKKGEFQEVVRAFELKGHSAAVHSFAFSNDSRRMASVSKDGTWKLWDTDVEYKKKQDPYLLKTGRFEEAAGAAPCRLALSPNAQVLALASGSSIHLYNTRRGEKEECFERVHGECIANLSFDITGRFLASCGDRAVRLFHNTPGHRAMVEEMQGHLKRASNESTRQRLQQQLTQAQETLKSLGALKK

T2: CCT3 (human, UniProt P49368 1-545)
T2 construct: also called NP_005989.3
T2 sequence (looked up): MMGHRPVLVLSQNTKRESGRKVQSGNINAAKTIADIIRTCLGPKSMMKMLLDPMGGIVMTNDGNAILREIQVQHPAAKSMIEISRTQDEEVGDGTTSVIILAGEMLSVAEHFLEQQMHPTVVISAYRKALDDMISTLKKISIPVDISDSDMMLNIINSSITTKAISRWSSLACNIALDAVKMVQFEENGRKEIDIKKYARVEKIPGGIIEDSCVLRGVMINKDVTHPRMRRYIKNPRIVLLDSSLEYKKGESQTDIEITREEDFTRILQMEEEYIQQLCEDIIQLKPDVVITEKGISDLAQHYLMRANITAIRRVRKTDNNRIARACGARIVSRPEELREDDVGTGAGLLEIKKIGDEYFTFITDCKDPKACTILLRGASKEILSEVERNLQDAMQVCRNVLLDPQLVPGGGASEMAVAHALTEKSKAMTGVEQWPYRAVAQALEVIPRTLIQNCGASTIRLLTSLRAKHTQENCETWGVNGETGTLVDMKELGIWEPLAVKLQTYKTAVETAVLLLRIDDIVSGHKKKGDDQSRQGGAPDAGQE

T3: JUP (human, UniProt P14923 1-745)
T3 construct: also called NP_001339702.1
T3 sequence (looked up): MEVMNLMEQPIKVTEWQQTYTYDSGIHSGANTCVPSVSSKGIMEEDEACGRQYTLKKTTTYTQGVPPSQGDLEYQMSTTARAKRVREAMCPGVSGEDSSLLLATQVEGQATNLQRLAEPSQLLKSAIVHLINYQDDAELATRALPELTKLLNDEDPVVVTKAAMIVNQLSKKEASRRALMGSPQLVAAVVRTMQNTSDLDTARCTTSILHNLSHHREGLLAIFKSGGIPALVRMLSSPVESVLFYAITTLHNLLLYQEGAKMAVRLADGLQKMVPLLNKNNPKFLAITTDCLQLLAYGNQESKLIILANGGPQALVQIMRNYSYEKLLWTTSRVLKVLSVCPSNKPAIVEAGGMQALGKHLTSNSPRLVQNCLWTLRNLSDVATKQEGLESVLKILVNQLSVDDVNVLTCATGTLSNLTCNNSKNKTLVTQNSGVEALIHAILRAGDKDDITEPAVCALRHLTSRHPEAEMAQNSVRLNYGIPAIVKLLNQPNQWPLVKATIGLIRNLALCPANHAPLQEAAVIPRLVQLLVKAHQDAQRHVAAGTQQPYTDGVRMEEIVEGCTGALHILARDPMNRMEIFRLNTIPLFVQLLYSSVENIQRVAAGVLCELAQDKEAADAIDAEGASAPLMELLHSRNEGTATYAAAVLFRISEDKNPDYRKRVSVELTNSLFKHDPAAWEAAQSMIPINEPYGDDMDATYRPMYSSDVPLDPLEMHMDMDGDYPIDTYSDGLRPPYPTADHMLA


Tests used:
Assay in all cases: co-IP with anti-FLAG, N-FLAG B3GNT2, mass spectrometry
[1] = molecular target: T1, TBL2
Description: (§1) Cells were plated in 10-cm cell culture dishes and grown to 60-80% confluency. For each condition, two biological replicates were harvested for co-IP. Cells were washed with PBS and 4 mL of lysis buffer (20 mM HEPES, 1% Triton X-100, 150 mM NaCl, 1 mM EDTA, and 10% glycerol) containing protease inhibitor cocktail was added. Cells were scraped and lysate was incubated at 4° C. under rotary agitation for 1 h. Lysate was centrifuged at 14,000×g for 10 min at 4° C. Supernatant was transferred to a new tube and an aliquot was taken as the input. […] For Western blots, 10 μg/mL Chicken Anti-FLAG (Aves labs ET-DY100) and IgY control (R&D Systems AB-101-C) antibodies were biotinylated (Thermo Fisher Scientific 90407) and added to the respective conditions. Lysates with antibodies were incubated at 4° C. under rotary agitation overnight. For each mL of lysate, 50 μL of Pierce Protein A/G Magnetic Beads (Mass spectrometry; Thermo Fisher Scientific 88803) or Pierce Streptavidin Magnetic Beads (Western blot; Thermo Fisher Scientific 88817) was washed twice with lysis buffer. Lysates with antibodies were added to the beads and incubated at 4° C. under rotary agitation for 4 h. Beads were washed with lysis buffer 3 times and resuspended in lysis buffer for storage.
(§2) Magnetic beads were resuspended in 100 mM Tris pH 7.8, reduced, alkylated and digested with trypsin at 37° ° C. overnight. This solution was subjected to solid phase extraction to concentrate the peptides and remove unwanted reagents followed by injection onto a Shimadzu HPLC with fraction collector. Eight fractions were collected and after concentration were injected on a Waters NanoAcquity HPLC equipped with a self-packed Aeris 3 μm C18 analytical column 0.075 mm by 20 cm, (Phenomenex). Peptides were eluted using standard reverse-phase gradients. The effluent from the column was analyzed using a Thermo Orbitrap Elite mass spectrometer (nanospray configuration) operated in a data dependent manner for 54 minutes. The resulting fragmentation spectra were correlated against the known database using Proteome Discover 1.4 (Thermo Fisher Scientific).

[2] = molecular target: T2, CCT3
Description: as §1, §2

[3] = molecular target: T4, EIF3A (human, UniProt Q14152 2-1382)
T4 construct: also called NP_003741.1
Description: as §1, §2

[4] = molecular target: T5, GBF1 (human, UniProt Q92538 1-1860, limits assumed)
T5 construct: also called NP_001186307.1 (+13)
T5 sequence (Q92538 whole entry): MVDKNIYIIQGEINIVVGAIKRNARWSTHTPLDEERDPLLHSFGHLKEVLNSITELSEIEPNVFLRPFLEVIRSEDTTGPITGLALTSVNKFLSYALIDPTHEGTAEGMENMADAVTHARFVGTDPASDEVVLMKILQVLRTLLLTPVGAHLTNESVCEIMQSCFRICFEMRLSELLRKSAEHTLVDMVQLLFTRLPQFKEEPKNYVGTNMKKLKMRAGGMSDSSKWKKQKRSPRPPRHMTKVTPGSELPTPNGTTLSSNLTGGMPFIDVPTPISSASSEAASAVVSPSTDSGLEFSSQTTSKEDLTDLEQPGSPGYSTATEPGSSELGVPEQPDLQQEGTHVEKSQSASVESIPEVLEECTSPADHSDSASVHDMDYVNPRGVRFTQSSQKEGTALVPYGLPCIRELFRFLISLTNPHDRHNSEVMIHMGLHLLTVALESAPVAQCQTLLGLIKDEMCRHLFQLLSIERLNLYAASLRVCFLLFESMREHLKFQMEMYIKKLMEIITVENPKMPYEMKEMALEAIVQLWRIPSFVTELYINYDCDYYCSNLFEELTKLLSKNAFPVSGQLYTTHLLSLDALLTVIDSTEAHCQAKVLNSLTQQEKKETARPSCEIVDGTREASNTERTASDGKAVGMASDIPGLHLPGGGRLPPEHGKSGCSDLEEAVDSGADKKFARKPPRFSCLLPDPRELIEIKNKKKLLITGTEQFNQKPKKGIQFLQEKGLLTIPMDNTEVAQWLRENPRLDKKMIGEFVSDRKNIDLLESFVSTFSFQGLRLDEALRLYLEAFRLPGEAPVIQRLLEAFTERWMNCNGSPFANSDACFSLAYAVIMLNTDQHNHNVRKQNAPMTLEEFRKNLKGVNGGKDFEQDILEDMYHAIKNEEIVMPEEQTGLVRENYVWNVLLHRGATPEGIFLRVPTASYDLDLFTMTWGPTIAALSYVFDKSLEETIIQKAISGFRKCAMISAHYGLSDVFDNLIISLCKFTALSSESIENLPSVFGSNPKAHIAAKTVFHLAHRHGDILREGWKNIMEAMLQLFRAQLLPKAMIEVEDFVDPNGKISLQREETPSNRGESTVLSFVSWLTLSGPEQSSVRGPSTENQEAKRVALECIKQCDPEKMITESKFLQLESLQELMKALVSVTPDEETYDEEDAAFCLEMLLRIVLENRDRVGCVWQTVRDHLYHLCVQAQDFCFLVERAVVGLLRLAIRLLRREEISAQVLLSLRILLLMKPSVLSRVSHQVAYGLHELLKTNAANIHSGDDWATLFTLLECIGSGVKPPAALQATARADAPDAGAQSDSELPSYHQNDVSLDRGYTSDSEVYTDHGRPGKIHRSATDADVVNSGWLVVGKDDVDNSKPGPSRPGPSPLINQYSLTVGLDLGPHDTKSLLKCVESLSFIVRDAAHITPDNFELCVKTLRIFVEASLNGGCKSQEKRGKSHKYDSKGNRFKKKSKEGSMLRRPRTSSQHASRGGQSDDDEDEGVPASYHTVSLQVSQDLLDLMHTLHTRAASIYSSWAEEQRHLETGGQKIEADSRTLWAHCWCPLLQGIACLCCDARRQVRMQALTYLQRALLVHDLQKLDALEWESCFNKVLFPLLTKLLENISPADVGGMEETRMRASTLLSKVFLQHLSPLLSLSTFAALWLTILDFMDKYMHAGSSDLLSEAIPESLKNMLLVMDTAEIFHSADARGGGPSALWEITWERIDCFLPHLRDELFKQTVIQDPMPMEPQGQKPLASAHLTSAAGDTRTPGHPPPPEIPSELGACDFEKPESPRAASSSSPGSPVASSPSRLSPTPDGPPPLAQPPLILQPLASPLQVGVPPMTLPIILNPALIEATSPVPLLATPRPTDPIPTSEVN
Description: as §1, §2

[5] = molecular target: T6, PRRC2C (human, UniProt Q9Y520-4 1-2817, limits assumed)
T6 construct: also called NP_055987.2 (+10)
T6 sequence (Q9Y520 other isoform, or with tags, fused parts or gaps limits assumed): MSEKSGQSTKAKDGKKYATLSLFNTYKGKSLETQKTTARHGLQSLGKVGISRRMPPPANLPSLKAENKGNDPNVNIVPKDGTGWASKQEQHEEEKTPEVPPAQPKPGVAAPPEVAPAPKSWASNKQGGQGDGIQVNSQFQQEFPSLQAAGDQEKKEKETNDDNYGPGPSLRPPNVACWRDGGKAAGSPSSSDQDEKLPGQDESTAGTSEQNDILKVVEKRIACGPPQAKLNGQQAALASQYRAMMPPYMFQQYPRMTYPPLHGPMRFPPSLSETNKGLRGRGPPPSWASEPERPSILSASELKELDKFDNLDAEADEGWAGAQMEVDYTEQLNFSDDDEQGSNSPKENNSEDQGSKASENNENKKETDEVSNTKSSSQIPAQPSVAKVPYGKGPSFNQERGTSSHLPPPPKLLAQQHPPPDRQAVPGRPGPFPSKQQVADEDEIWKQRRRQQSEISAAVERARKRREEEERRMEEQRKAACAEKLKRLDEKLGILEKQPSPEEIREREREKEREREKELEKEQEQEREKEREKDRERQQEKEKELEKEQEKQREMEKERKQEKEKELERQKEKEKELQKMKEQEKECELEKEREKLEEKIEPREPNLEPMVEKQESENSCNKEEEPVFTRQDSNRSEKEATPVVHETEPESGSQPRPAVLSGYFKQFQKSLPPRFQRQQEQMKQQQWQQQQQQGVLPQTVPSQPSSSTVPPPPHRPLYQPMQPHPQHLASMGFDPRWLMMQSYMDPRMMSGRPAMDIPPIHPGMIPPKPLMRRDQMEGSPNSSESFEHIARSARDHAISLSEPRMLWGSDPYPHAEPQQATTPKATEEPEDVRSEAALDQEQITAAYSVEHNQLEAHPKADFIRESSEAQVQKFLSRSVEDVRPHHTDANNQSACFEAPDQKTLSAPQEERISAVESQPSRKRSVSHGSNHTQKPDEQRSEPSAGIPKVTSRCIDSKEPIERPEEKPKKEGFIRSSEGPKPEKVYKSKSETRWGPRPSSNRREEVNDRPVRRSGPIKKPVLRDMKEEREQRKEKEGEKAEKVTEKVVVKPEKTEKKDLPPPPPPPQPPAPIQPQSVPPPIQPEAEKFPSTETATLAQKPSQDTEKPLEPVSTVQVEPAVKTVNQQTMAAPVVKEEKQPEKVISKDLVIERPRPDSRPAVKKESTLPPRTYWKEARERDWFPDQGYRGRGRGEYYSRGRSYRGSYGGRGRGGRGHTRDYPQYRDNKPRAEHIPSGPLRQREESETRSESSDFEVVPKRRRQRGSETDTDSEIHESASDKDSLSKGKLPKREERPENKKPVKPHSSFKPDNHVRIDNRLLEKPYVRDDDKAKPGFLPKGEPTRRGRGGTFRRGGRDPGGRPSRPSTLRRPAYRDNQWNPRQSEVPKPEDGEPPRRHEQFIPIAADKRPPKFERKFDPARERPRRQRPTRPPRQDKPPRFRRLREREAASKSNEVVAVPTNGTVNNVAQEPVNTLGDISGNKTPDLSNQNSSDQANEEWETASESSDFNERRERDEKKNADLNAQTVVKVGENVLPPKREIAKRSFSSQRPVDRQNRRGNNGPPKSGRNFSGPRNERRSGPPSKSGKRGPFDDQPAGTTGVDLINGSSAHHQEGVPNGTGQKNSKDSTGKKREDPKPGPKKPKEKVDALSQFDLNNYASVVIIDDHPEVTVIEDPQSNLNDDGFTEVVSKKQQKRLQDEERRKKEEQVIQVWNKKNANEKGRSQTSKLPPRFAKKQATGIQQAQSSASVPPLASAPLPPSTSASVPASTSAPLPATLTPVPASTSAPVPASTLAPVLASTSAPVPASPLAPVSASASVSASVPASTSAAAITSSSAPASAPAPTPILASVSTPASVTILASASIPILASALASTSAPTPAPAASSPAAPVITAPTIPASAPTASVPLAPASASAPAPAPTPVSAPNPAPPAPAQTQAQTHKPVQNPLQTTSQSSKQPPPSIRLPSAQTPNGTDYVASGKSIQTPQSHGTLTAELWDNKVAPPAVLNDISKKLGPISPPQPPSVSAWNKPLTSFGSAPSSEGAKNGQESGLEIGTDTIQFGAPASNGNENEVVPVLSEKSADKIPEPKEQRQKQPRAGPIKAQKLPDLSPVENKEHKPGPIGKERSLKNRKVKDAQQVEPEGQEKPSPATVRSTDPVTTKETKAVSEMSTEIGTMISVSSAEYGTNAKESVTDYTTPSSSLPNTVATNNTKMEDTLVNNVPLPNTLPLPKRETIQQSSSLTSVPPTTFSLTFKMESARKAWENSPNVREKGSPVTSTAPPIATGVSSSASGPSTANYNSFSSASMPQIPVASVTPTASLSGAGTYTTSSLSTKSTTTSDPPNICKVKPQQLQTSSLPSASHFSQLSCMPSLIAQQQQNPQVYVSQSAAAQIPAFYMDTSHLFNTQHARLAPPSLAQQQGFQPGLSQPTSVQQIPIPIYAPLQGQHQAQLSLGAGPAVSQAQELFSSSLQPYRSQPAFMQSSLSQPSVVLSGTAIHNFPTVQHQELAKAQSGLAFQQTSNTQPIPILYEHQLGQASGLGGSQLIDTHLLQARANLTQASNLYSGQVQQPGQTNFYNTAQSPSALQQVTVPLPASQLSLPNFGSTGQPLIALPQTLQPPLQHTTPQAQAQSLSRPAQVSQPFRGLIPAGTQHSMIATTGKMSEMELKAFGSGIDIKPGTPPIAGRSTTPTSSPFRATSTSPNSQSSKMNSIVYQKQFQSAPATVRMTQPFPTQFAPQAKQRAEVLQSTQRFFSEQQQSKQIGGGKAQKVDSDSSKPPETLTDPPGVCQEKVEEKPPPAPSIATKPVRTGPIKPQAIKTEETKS
Description: as §1, §2

[6] = molecular target: T3, JUP
Description: as §1, §2

| Binder | co-IP mass spectrometry count [1] | co-IP mass spectrometry count [2] | co-IP mass spectrometry count [3] | co-IP mass spectrometry count [4] | co-IP/MS count, N-term FLAG [5] | co-IP/MS count, N-term FLAG [6] |
| --- | --- | --- | --- | --- | --- | --- |
| N-terminal FLAG tagged B3GNT2 (enzyme, human, UniProt Q9NY97 1-397, looked up, FLAG-tagged ORF overexpressed in cells; pulled down from lysate with mouse anti-FLAG; also called N-FLAG B3GNT2; N-term FLAG; not shown: N-terminal FLAG tag) MSVGRRRIKLLGILMMANVFIYFIMEVSKSSSQEKNGKGEVIIPKEKFWKISTPPEAYWNREQEKLNRQYNPILSMLTNQTGEAGRLSNISHLNYCEPDLRVTSVVTGFNNLPDRFKDFLLYLRCRNYSLLIDQPDKCAKKPFLLLAIKSLTPHFARRQAIRESWGQESNAGNQTVVRVFLLGQTPPEDNHPDLSDMLKFESEKHQDILMWNYRDTFFNLSLKEVLFLRWVSTSCPDTEFVFKGDDDVFVNTHHILNYLNSLSKTKAKDLFIGDVIHNAGPHRDKKLKYYIPEVVYSGLYPPYAGGGGFLYSGHLALRLYHITDQVHLYPIDDVYTGMCLQKLGLVPEKHKGFRTFDIEEKNKNNICSYVDLMLVHSRKPQEMIDIWSQLQSAHLKC | 0 | 0 | 2 | 0 |  |  |
| N-terminal FLAG tagged B3GNT2 (enzyme, human, UniProt Q9NY97 1-397, looked up, FLAG-tagged ORF overexpressed in A375 cells; pulled down from the lysate with mouse anti-FLAG; also called N-FLAG B3GNT2; N-term FLAG; not shown: N-terminal FLAG tag) MSVGRRRIKLLGILMMANVFIYFIMEVSKSSSQEKNGKGEVIIPKEKFWKISTPPEAYWNREQEKLNRQYNPILSMLTNQTGEAGRLSNISHLNYCEPDLRVTSVVTGFNNLPDRFKDFLLYLRCRNYSLLIDQPDKCAKKPFLLLAIKSLTPHFARRQAIRESWGQESNAGNQTVVRVFLLGQTPPEDNHPDLSDMLKFESEKHQDILMWNYRDTFFNLSLKEVLFLRWVSTSCPDTEFVFKGDDDVFVNTHHILNYLNSLSKTKAKDLFIGDVIHNAGPHRDKKLKYYIPEVVYSGLYPPYAGGGGFLYSGHLALRLYHITDQVHLYPIDDVYTGMCLQKLGLVPEKHKGFRTFDIEEKNKNNICSYVDLMLVHSRKPQEMIDIWSQLQSAHLKC |  |  |  |  | 6 | 47 |
